Patent US20190065668A1, “STRUCTURE OF […] IN COMPLEX WITH AN INHIBITOR AND USES THEREOF” (priority 2015, published 2019)

Tests used:
[1] = target: recombinant P. vivax plasmepsin V (residues R35-R476), N-terminal fusion tag removed with TEV protease (Plasmodium vivax) (UniProt A5K302); assay: cell-based or functional assay
[2] = target: recombinant P. vivax plasmepsin V (residues R35-R476), N-terminal fusion tag removed with TEV protease (Plasmodium vivax) (UniProt A5K302); assay: SPR, Biacore 4000, plasmepsin V amine-coupled on a CM5 chip
[3] = target: recombinant P. vivax plasmepsin V (residues R35-R476), N-terminal fusion tag removed with TEV protease (Plasmodium vivax) (UniProt A5K302); assay: SPR, Biacore 4000, plasmepsin V amine-coupled on a CM5 chip, 1:1 fit
[4] = target: recombinant P. vivax plasmepsin V (residues R35-R476), N-terminal fusion tag removed with TEV protease (Plasmodium vivax) (UniProt A5K302); assay: SPR, Biacore 4000, plasmepsin V amine-coupled on a CM5 chip, compound as analyte, 1:1 fit, 25 °C
[5] = target: recombinant P. falciparum plasmepsin V (residues N80-R528) (Plasmodium falciparum) (UniProt Q8I6Z5); assay: cell-based or functional assay
recombinant P. falciparum plasmepsin V (residues N80-R528) (Plasmodium falciparum), sequence (Q8I6Z5 80-528): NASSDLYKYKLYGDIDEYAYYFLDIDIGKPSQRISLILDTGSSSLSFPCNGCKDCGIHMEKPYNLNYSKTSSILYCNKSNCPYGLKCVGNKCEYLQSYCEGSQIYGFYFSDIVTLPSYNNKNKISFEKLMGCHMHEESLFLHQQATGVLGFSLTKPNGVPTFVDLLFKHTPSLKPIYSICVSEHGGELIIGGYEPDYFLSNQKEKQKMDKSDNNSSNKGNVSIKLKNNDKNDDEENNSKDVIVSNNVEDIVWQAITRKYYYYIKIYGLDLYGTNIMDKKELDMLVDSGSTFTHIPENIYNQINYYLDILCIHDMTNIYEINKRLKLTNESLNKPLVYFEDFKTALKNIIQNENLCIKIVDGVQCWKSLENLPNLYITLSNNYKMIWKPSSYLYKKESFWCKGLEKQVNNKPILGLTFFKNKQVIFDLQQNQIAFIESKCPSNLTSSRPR

recombinant P. vivax plasmepsin V (residues R35-R476), N-terminal fusion tag removed with TEV protease (Plasmodium vivax), sequence (A5K302 35-476, tags or fused parts left off): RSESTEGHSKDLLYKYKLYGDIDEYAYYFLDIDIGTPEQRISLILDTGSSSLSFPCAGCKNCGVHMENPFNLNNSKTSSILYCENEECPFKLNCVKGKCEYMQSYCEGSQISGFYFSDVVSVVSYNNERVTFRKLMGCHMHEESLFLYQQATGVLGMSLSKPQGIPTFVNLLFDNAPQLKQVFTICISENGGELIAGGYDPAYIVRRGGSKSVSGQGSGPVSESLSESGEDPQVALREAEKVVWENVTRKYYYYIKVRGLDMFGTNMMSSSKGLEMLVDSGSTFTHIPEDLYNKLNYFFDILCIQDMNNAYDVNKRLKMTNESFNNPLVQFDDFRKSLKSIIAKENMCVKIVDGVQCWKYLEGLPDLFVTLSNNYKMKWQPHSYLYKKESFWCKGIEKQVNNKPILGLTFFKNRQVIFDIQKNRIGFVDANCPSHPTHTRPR

Question: Which IC50, inhibition of cleavage of the fluorogenic KAHRP PEXEL peptide [1] does the source give for “WEHI-842, Cbz-Cav(NH2)-Val-Sta-NH(CH2)2Ph.TFA (peptide)” here?
Answer: 1.6 nM

Question: And the fold affinity against WEHI-916 [2]?
Answer: > 2 fold

Question: What about the koff [3] of the same substance?
Answer: 0.00111 s⁻¹

Question: What about the Kd [4] of the same substance?
Answer: 13.4 nM

Question: With WEHI-916 (peptide) as the substance, how does the IC50, inhibition of cleavage of the fluorogenic KAHRP PEXEL peptide [5] read?
Answer: 12.9 nM

Question: And the IC50, inhibition of cleavage of the fluorogenic KAHRP PEXEL peptide [1]?
Answer: 8.2 nM

Question: What about the koff [3] of the same substance?
Answer: 0.00247 s⁻¹

Question: And the Kd [4]?
Answer: 42 nM
